# In patent US7943574B2, “Cell-permeable peptide inhibitors of the JNK signal transduction pathway” (Xigen SA, priority 2002, dated 2011):
# Entries after “also recorded” stand apart in the source; their conditions may differ. Residues, ends and D or L forms follow the SMILES beside them.
# Legend:
# [1] = molecular target: T1, SH3 domain of IB2 (MKK7 binding) (Homo sapiens, UniProt Q13387); test: Pull-down of 35S-labelled MKK7 on GST-SH3 domain of IB2; settings: GST-SH3 domain of IB2, 35S-labelled MKK7 (FIG. 2)
# T1 construct: the SH3 domains of IB1 and IB2 were subcloned using PCR into the pGEX-4T1 vector in frame with the GST; GST (N); made in house; host or cells: E. coli
# T1 sequence (Q13387 604-665 limits assumed): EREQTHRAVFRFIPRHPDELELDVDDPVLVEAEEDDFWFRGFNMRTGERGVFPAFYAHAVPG
# Experimental: (§1) Effects of the αSH3 peptide on JNK biological activities were then studied. […] In the pull-down experiments, the SH3 domains of IB1 and IB2 were subcloned using PCR into the pGEX-4T1 vector in frame with the GST (Pharmacia). The recombinant proteins were produced in E. coli. Purification was performed in native conditions using a glutathione-agarose column (Pharmacia). ^35S-labelled MKK7 was then used in classical pull-down experiments.
# [2] = molecular target: T2, SH3 domain of IB1 (MKK7 binding) (Homo sapiens, UniProt Q9UQF2); test: Pull-down of 35S-labelled MKK7 on GST-SH3 domain of IB1; settings: GST-SH3 domain of IB1, 35S-labelled MKK7 (FIG. 2)
# T2 construct: the SH3 domains of IB1 and IB2 were subcloned using PCR into the pGEX-4T1 vector in frame with the GST; GST (N); made in house; host or cells: E. coli
# T2 sequence (Q9UQF2 488-549 limits assumed): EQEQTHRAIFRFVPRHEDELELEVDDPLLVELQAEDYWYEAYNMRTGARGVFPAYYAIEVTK
# Experimental: as §1
# [3] = tested on: developing rat cortical neurons; test: Incubation of developing rat cortical neurons with peptide (toxicity, neuron number); settings: 1 μM peptide, versus control developing rat cortical neurons (FIG. 4)
blocking of the binding of MKK7 to IB2 [1],blocking of the binding of MKK7 to IB1 [2],Compound,toxicity on developing neurons (residual necrotic bodies) [3]
efficiently blocks,efficiently blocks,"αSH3: consensus SH3 binding peptide, 12 aa, SVSVGMPPSP RP (SVSVGMPPSPRP)",–
–,–,CSCC[C@H](NC(=O)CNC(=O)[C@@H](NC(=O)[C@H](CO)NC(=O)[C@@H](NC(=O)[C@H](CO)NC(=O)[C@H](CCCNC(=N)N)NC(=O)[C@H](CCCNC(=N)N)NC(=O)[C@H](CCCNC(=N)N)NC(=O)[C@H](CCC(N)=O)NC(=O)[C@H](CCCNC(=N)N)NC(=O)[C@H](CCCNC(=N)N)NC(=O)[C@H](CCCCN)NC(=O)[C@H](CCCCN)NC(=O)[C@@H](N)CCCNC(=N)N)C(C)C)C(C)C)C(=O)N1CCC[C@H]1C(=O)N1CCC[C@H]1C(=O)N[C@@H](CO)C(=O)N1CCC[C@H]1C(=O)N[C@@H](CCCNC(=N)N)C(=O)N1CCC[C@H]1C(=O)O [TAT-αSH3] (H-RKKRRQRRRSVSVGMPPSPRP-OH),lacked residual necrotic bodies; also recorded: not toxic
